Experimental data taken from article PMC3488191, “Functional identification of the DNA packaging terminase from Pseudomonas aeruginosa phage PaP3”.

Experiments:
[1] = target: T1, p01 small terminase subunit (Pseudomonas aeruginosa phage PaP3) (UniProt Q8H9R5); assay: EMSA; conditions: 50 mM Tris-HCl pH 8.0, 50 mM NaCl, 10 mM MgCl2, 5% glycerol, 1.5 uM DNA, 37 C 30 min, stopped with 20 mM EDTA; 5% native PAGE in 0.5x TBE
T1 sequence: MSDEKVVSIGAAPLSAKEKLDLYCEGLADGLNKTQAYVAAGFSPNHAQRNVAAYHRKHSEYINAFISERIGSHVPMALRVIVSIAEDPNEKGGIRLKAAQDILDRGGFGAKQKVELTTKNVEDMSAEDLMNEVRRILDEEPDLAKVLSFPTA

[2] = target: T2, p03 large terminase subunit (Pseudomonas aeruginosa phage PaP3, UniProt Q8H9R7 1-482); assay: EMSA; 10 mM Mg2+; 50 mM Tris-HCl pH 8.0, 50 mM NaCl, 10 mM MgCl2, 5% glycerol, 1.5 uM DNA, 37 C 30 min, stopped with 20 mM EDTA; 5% native PAGE in 0.5x TBE; conditions: protein: recombinant; tags: C-terminal His6 (pET-22b); label: 5'-biotin; blunt
T2 sequence: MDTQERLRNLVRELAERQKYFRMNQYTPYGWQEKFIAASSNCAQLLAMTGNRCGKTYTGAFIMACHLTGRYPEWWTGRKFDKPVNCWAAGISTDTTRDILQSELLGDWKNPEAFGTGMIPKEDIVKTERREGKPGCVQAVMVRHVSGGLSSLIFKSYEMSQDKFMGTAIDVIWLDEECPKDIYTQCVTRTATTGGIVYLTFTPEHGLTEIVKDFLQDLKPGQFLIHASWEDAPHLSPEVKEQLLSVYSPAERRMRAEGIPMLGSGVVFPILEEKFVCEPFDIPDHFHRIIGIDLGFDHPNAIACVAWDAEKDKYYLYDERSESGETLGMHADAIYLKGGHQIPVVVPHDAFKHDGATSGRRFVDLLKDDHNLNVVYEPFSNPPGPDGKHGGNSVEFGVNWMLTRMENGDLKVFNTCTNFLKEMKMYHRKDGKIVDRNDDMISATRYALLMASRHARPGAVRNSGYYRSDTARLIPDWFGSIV

[3] = target: T2, p03 large terminase subunit; assay: EMSA; 10 mM Mg2+; 0.4 uM p03; 50 mM Tris-HCl pH 8.0, 50 mM NaCl, 10 mM MgCl2, 5% glycerol, 1.5 uM DNA, 37 C 30 min, stopped with 20 mM EDTA; 5% native PAGE in 0.5x TBE; conditions: protein: recombinant; tags: C-terminal His6 (pET-22b); label: 5'-biotin; blunt

ATACTCCCCGTCGCGCTTGAACCACGGGGTCTGTCAATTGATTGCGCTGGGACAGGCTACCAGTCGGGCCTTCTATGGTACAAGGCCAGGACCTACGCTCTTTCGGAGTGTGCGTTATTCCCTCAGCTTTCGGGTTTCTCCCTTGTTCAGTCCAAGGACCGTCGAAGGTACACTTTCCCCAGGTGGCCGTCACCTGATGGGTGCCCATGTTAGAGCCGTGGGCTTGCCTTGTCAACCCT (double strand) [cos239dn]
binding [1]: no binding

B1: 24-bp non-cos DNA (dsDNA)
DNA 1: GCACTGCAGTAACTTGTCAGTCAT
DNA 2: ATGACTGACAAGTTACTGCAGTGC
binding result [2]: no binding

B2: 20-bp cos end sequence (dsDNA)
DNA 1: GCCGGCCCCTTTCCGCGTTA
DNA 2: TAACGCGGAAAGGGGCCGGC
binding result [3]: binds
